Target: T1, human glycyl-tRNA synthetase, wild type (GlyRS^WT) (human, UniProt P41250 55-739)
T1 construct: also called WT GlyRS; GARS
T1 sequence: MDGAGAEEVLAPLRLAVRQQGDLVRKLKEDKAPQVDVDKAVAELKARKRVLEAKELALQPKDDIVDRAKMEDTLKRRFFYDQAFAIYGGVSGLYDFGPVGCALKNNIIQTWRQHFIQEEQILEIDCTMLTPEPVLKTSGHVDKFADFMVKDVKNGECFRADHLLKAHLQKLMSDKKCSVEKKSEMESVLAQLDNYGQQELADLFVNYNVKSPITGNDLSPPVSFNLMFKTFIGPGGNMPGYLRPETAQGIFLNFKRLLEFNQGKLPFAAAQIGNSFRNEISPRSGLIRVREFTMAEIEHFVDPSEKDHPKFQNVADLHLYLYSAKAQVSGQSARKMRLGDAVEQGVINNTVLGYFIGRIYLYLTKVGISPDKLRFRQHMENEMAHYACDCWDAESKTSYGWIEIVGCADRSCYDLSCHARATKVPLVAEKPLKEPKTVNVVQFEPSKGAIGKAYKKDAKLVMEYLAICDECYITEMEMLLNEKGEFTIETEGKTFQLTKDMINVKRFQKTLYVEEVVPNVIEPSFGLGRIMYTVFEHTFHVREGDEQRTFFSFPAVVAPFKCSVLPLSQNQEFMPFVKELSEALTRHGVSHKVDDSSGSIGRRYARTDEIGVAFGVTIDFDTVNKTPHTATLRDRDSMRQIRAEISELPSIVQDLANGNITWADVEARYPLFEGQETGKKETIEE
Assay: in vitro IP: Fc-fused Nrp1 domain constructs on Protein A resin, recombinant GlyRS added, blot GlyRS

Binder | binding result
b2 (on Fc) (Fc fusion, also called Nrp1 b2 domain (res. Lys425-Phe643) fused to human IgG Fc; not shown: C-terminal human IgG Fc domain (and any V5-His tag from the vector); The CD33 signal peptide is cleaved on secretion) KITDYPCSGMLGMVSGLISDSQITSSNQGDRNWMPENIRLVTSRSGWALPPAPHSYINEWLQIDLGEEKIVRGIIIQGGKHRENKVFMRKFKIGYSNNGSDWKMIMDDSKRKAKSFEGNNNYDTPELRTFPALSTRFIRIYPERATHGGLGLRMELLGCEVEAPTAGPTTPNGNLVDECDDDQANCHSGTGDDFQLTGGTTVLATEKPTVIDSTIQSEF | no binding
c-Fc (drawn as the c box on Fc) (Fc fusion, also called Nrp1 c domain (res. Thr589-Asp840) fused to human IgG Fc; not shown: C-terminal human IgG Fc domain (and any V5-His tag from the vector); The CD33 signal peptide is cleaved on secretion) TAGPTTPNGNLVDECDDDQANCHSGTGDDFQLTGGTTVLATEKPTVIDSTIQSEFPTYGFNCEFGWGSHKTFCHWEHDNHVQLKWSVLTSKTGPIQDHTGDGNFIYSQADENQKGKVARLVSPVVYSQNSAHCMTFWYHMSGSHVGTLRVKLRYQKPEEYDQLVWMAIGHQGDHWKEGRVLLHKSLKLYQVIFEGEIGKGNLGGIAVDDISINNHISQEDCAKPADLDKKNPEIKIDETGSTPGYEGEGEGD | no binding
